± gives the uncertainty stated by the source.
B1: A-16-F; numbered along this chain (parent)
chain: EASNCFAIRHFENKFAVETLICFNLFLNSQEKHY

Variants of: B1
Assay: amyloid nucleation score relative to WT ADan (yeast Sup35 reporter selection) (log enrichment difference); higher = more amyloid nucleation
Description: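 Deep mutational scan of the ADan peptide fused to the Sup35 nucleation domain (SupN) in S. cerevisiae [psi-pin-], covering all single amino-acid substitutions and stop truncations (truncations = sequence up to the stop). After 24 h Cu2+ induction, cells were selected on -ADE-URA plates for 7 d at 30 °C. The nucleation score is log enrichment (output/input, deep sequencing) minus that of WT ADan, as the error-weighted mean of 3 biological replicates (DiMSum).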

Point of comparison: EASNCFAIRHFENKFAVWTLICFNLFLNSQEKHY, amyloid nucleation score -4.12 ± 0.54. Against it:
- EASNCFAIRHFENKFFVETLICFNLFLNSQEKHY — higher, 0.651 ± 0.16
- EASNCFAIRHFENKFGVETLICFNLFLNSQEKHY — higher, 0.407 ± 0.091
- EASNCFAIRHFENKFHVETLICFNLFLNSQEKHY — higher, 0.76 ± 0.31
- EASNCFAIRHFENKFIVETLICFNLFLNSQEKHY — higher, -0.647 ± 0.19
- EASNCFAIRHFENKFKVETLICFNLFLNSQEKHY — higher, 0.514 ± 0.17
- EASNCFAIRHFENKFLVETLICFNLFLNSQEKHY — higher, -0.774 ± 0.099
- EASNCFAIRHFENKFMVETLICFNLFLNSQEKHY — higher, -0.212 ± 0.15
- EASNCFAIRHFENKFNVETLICFNLFLNSQEKHY — higher, 0.755 ± 0.16
- EASNCFAIRHFENKFPVETLICFNLFLNSQEKHY — higher, -1.2 ± 0.21
- EASNCFAIRHFENKFQVETLICFNLFLNSQEKHY — higher, 0.708 ± 0.17
- EASNCFAIRHFENKFRVETLICFNLFLNSQEKHY — higher, 0.372 ± 0.1
- EASNCFAIRHFENKFSVETLICFNLFLNSQEKHY — higher, 0.414 ± 0.1
- EASNCFAIRHFENKFTVETLICFNLFLNSQEKHY — higher, 0.448 ± 0.14
- EASNCFAIRHFENKFVVETLICFNLFLNSQEKHY — higher, -0.233 ± 0.1
- EASNCFAIRHFENKFWVETLICFNLFLNSQEKHY — higher, -0.102 ± 0.13
- EASNCFAIRHFENKFYVETLICFNLFLNSQEKHY — higher, 0.572 ± 0.16
- EASNCFAIRHFENKFAAETLICFNLFLNSQEKHY — higher, 0.689 ± 0.12
- EASNCFAIRHFENKFACETLICFNLFLNSQEKHY — higher, 0.711 ± 0.14
- EASNCFAIRHFENKFADETLICFNLFLNSQEKHY — higher, -0.492 ± 0.18
- EASNCFAIRHFENKFAEETLICFNLFLNSQEKHY — higher, -1.74 ± 0.18
- EASNCFAIRHFENKFAFETLICFNLFLNSQEKHY — higher, -0.0103 ± 0.15
- EASNCFAIRHFENKFAGETLICFNLFLNSQEKHY — higher, 0.953 ± 0.098
- EASNCFAIRHFENKFAHETLICFNLFLNSQEKHY — higher, -1.16 ± 0.56
- EASNCFAIRHFENKFAIETLICFNLFLNSQEKHY — higher, 0.523 ± 0.2
- EASNCFAIRHFENKFAKETLICFNLFLNSQEKHY — higher, 0.416 ± 0.18
- EASNCFAIRHFENKFALETLICFNLFLNSQEKHY — higher, -0.705 ± 0.1
- EASNCFAIRHFENKFAMETLICFNLFLNSQEKHY — higher, -1.07 ± 0.17
- EASNCFAIRHFENKFANETLICFNLFLNSQEKHY — higher, -0.235 ± 0.19
- EASNCFAIRHFENKFAPETLICFNLFLNSQEKHY — higher, 0.114 ± 0.3
- EASNCFAIRHFENKFAQETLICFNLFLNSQEKHY — higher, -1.12 ± 0.23
- EASNCFAIRHFENKFARETLICFNLFLNSQEKHY — higher, 0.126 ± 0.11
- EASNCFAIRHFENKFASETLICFNLFLNSQEKHY — higher, 0.586 ± 0.096
- EASNCFAIRHFENKFATETLICFNLFLNSQEKHY — higher, -0.513 ± 0.17
- EASNCFAIRHFENKFAWETLICFNLFLNSQEKHY — higher, -0.301 ± 0.14
- EASNCFAIRHFENKFAYETLICFNLFLNSQEKHY — higher, -2.81 ± 0.43
- EASNCFAIRHFENKFAVATLICFNLFLNSQEKHY — higher, -0.809 ± 0.17
- EASNCFAIRHFENKFAVCTLICFNLFLNSQEKHY — higher, -1.06 ± 0.17
- EASNCFAIRHFENKFAVDTLICFNLFLNSQEKHY — higher, 0.406 ± 0.15
- EASNCFAIRHFENKFAVFTLICFNLFLNSQEKHY — higher, -2.56 ± 0.22
- EASNCFAIRHFENKFAVGTLICFNLFLNSQEKHY — higher, 0.127 ± 0.1
- EASNCFAIRHFENKFAVHTLICFNLFLNSQEKHY — higher, -0.855 ± 0.27
- EASNCFAIRHFENKFAVITLICFNLFLNSQEKHY — within error, -3.49 ± 0.49
- EASNCFAIRHFENKFAVKTLICFNLFLNSQEKHY — higher, 0.239 ± 0.16
- EASNCFAIRHFENKFAVLTLICFNLFLNSQEKHY — higher, -2.63 ± 0.27
- EASNCFAIRHFENKFAVMTLICFNLFLNSQEKHY — higher, -3.07 ± 0.39
- EASNCFAIRHFENKFAVNTLICFNLFLNSQEKHY — higher, 0.236 ± 0.18
- EASNCFAIRHFENKFAVPTLICFNLFLNSQEKHY — higher, 0.645 ± 0.28
- EASNCFAIRHFENKFAVQTLICFNLFLNSQEKHY — higher, -0.141 ± 0.22
- EASNCFAIRHFENKFAVRTLICFNLFLNSQEKHY — higher, -0.108 ± 0.1
- EASNCFAIRHFENKFAVSTLICFNLFLNSQEKHY — higher, -0.355 ± 0.11
- EASNCFAIRHFENKFAVTTLICFNLFLNSQEKHY — higher, -1.61 ± 0.21
- EASNCFAIRHFENKFAVVTLICFNLFLNSQEKHY — higher, -2.72 ± 0.29
- EASNCFAIRHFENKFAVYTLICFNLFLNSQEKHY — within error, -5.47 ± 1.1
- EASNCFAIRHFENKFAVEALICFNLFLNSQEKHY — higher, -2.16 ± 0.23
- EASNCFAIRHFENKFAVECLICFNLFLNSQEKHY — higher, -2.47 ± 0.27
- EASNCFAIRHFENKFAVEDLICFNLFLNSQEKHY — higher, -0.804 ± 0.17
- EASNCFAIRHFENKFAVEELICFNLFLNSQEKHY — higher, -0.714 ± 0.17
- EASNCFAIRHFENKFAVEFLICFNLFLNSQEKHY — within error, -3.39 ± 0.4
- EASNCFAIRHFENKFAVEGLICFNLFLNSQEKHY — higher, 0.166 ± 0.098
- EASNCFAIRHFENKFAVEHLICFNLFLNSQEKHY — higher, -0.0921 ± 0.27
- EASNCFAIRHFENKFAVEILICFNLFLNSQEKHY — within error, -3.44 ± 0.43
- EASNCFAIRHFENKFAVEKLICFNLFLNSQEKHY — higher, 0.347 ± 0.17
- EASNCFAIRHFENKFAVELLICFNLFLNSQEKHY — within error, -4.84 ± 0.63
- EASNCFAIRHFENKFAVEMLICFNLFLNSQEKHY — higher, -1.99 ± 0.54
- EASNCFAIRHFENKFAVENLICFNLFLNSQEKHY — higher, 0.196 ± 0.16
- EASNCFAIRHFENKFAVEPLICFNLFLNSQEKHY — higher, 0.859 ± 0.18
- EASNCFAIRHFENKFAVEQLICFNLFLNSQEKHY — higher, 0.45 ± 0.2
- EASNCFAIRHFENKFAVERLICFNLFLNSQEKHY — higher, 0.563 ± 0.1
- EASNCFAIRHFENKFAVESLICFNLFLNSQEKHY — higher, 0.268 ± 0.11
- EASNCFAIRHFENKFAVEVLICFNLFLNSQEKHY — within error, -3.41 ± 0.34
- EASNCFAIRHFENKFAVEWLICFNLFLNSQEKHY — higher, -2.17 ± 0.28
